Source: publication PMC10511321

What was measured:
[1] = molecular target: SARS-CoV-2 Omicron BA.2.75.2 RBD, construct used for SPR (SARS-CoV-2) (UniProt P0DTC2); assay: SPR
[2] = molecular target: SARS-CoV-2 Omicron BN.1 S glycoprotein, cell-surface expressed (Δ19) (SARS-CoV-2) (UniProt P0DTC2)
[3] = molecular target: SARS-CoV-2 Omicron BQ.1.1 S glycoprotein, cell-surface expressed (Δ19) (SARS-CoV-2) (UniProt P0DTC2)
[4] = molecular target: SARS-CoV-2 Omicron XBB.1 S glycoprotein, cell-surface expressed (Δ19) (SARS-CoV-2) (UniProt P0DTC2)

Substance	Kd [1] [nM]	koff [1] [s⁻¹]	kon [1] [M⁻¹ s⁻¹]	neutralization of S VSV pseudovirus, fold reduction in potency relative to Wu [2] [fold]	neutralization of S VSV pseudovirus, fold reduction in potency relative to Wu [3] [fold]	neutralization of S VSV pseudovirus, fold reduction in potency relative to Wu [4] [fold]
S309 Fab (fragment antigen-binding region of the S309 antibody, the parent antibody for sotrovimab), used for SPR	0.86	2.8e-05	25500			
sotrovimab immunoglobulin G (IgG) (antibody)				778	94	6.5
